# Source: US20160047821
# Numbering of substitutions follows the chain as printed.
# B1: IκB kinase (IKK) complex (endogenous, WT MEFs) (protein)
# chain 1: MERPPGLRPGAGGPWEMRERLGTGGFGNVSLYQHRELDLKIAIKSCRLELSSKNRERWCHEIQIMKKLDHANVVKACDVPEELNFLINDVPLLAMEYCSGGDLRKLLNKPENCCGLKESQILSLLSDIGSGIRYLHENKIIHRDLKPENIVLQDVGGKTIHKIIDLGYAKDVDQGSLCTSFVGTLQYLAPELFENKPYTATVDYWSFGTMVFECIAGYRPFLHHLQPFTWHEKIKKKDPKCIFACEEMTGEVRFSSHLPQPNSLCSLIVEPMESWLQLMLNWDPQQRGGPIDLTLKQPRCFALMDHILNLKIVHILNMTSAKIISFLLPCDESLHSLQSRIERETGINTGSQELLSETGISLDPRKPASQCVLDGVRGCDSYMVYLFDKSKTVYEGPFASRSLSDCVNYIVQDSKIQLPIIQLRKVWAEAVHYVSGLKEDYSRLFQGQRAAMLSLLRYNANLTKMKNTLISASQQLKAKLEFFRKSIQLDLERYSEQMTYGISSEKMLKAWKEMEEKAIHYSEVGVIGYLEDQIMSLHTEIMELQKSPYGRRQGDLMESLEQRAIDLYKQLKHRPPDHLYSDSTEMVKIIVHTVQSQDRVLKELFGHLSKLLGCKQKIIDLLPKVEVALSNIKEADNTVMFMQGKRQKEIWHLLKIACTQSSARSLVGSSLEGTVTPPVSAWLPPTLADREHPLTCVVTPQDGETLAQMIEENLNCLGHLSTIIREANEDQSSSLMSLDWSWLAE
# chain 2: MSWSPSLPTQTCGAWEMKERLGTGGFGNVIRWHNQATGEQIAIKQCRQELSPKNRNRWCLEIQIMRRLNHPNVVAARDVPEGMQNLAPNDLPLLAMEYCQGGDLRRYLNQFENCCGLREGAVLTLLSDIASALRYLHENRIIHRDLKPENIVLQQGEKRLIHKIIDLGYAKELDQGSLCTSFVGTLQYLAPELLEQQKYTVTVDYWSFGTLAFECITGFRPFLPNWQPVQWHSKVRQKSEVDIVVSEDLNGAVKFSSSLPFPNNLNSVLAERLEKWLQLMLMWHPRQRGTDPQYGPNGCFRALDDILNLKLVHVLNMVTGTVHTYPVTEDESLQSLKTRIQENTGILETDQELLQKAGLVLLPDKPATQCISDSKTNEGLTLDMDLVFLLDNSKINYETQITPRPPPESVSCILQEPKRNLSFFQLRKVWGQVWHSIQTLKEDCNRLQQGQRAAMMSLLRNNSCLSKMKNAMASTAQQLKAKLDFFKTSIQIDLEKYKEQTEFGITSDKLLLAWREMEQAVEQCGRENDVKHLVERMMALQTDIVDLQRSPMGRKQGGTLDDLEEQARELYRKLREKPRDQRTEGDSQEMVRLLLQAIQSFEKKVRVIYTQLSKTVVCKQKALELLPKVEEVVSLMNEDERTVVRLQEKRQKELWNLLKIACSKVRGPVSGSPDSMNVSRLSHPGQLMSQPSSACDSLPESDKKSEELVAEAHALCSRLESALQDTVKEQDRSFTTLDWSWLQMEDEERCSLEQACD
# chain 3: MNKHPWKNQLSEMVQPSGGPAEDQDMLGEESSLGKPAMLHLPSEQGTPETLQRCLEENQELRDAIRQSNQMLRERCEELLHFQVSQREEKEFLMCKFQEARKLVERLSLEKLDLRSQREQALKELEQLKKCQQQMAEDKASVKAQVTSLLGELQESQSRLEAATKDRQALEGRIRAVSEQVRQLESEREVLQQQHSVQVDQLRMQNQSVEAALRMERQAASEEKRKLAQLQAAYHQLFQDYDSHIKSSKGMQLEDLRQQLQQAEEALVAKQELIDKLKEEAEQHKIVMETVPVLKAQADIYKADFQAERHAREKLVEKKEYLQEQLEQLQREFNKLKVGCHESARIEDMRKRHVETPQPPLLPAPAHHSFHLALSNQRRSPPEEPPDFCCPKCQYQAPDMDTLQIHVMECIE
# Experiments:
# [1] = target: T1, GST-RelB deletion mutant Δ1 (amino acids 274-321)
# T1 chain: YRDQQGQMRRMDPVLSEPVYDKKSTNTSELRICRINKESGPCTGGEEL
# [2] = target: T2, GST-RelB deletion mutant Δ2 (amino acids 316-377)
# T2 chain: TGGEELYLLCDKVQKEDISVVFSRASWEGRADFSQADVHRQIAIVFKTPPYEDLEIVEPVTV
# [3] = target: T3, GST-RelB deletion mutant Δ3 (amino acids 372-448)
# T3 chain: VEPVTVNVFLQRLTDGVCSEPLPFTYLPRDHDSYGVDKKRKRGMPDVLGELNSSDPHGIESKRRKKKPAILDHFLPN
# [4] = target: T4, GST-RelB deletion mutant Δ4 (amino acids 441-504)
# T4 chain: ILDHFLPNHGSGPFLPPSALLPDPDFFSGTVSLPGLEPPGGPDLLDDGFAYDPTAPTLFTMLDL
# [5] = target: T5, GST-RelB deletion mutant Δ5 (amino acids 499-580)
# T5 chain: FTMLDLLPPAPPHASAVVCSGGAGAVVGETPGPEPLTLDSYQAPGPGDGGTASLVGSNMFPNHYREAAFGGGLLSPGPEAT
# [6] = target: T6, GST-RelB Δ4 point mutant S451A
# T6 chain: T4 chain with S11A
# [7] = target: T7, GST-RelB Δ4 point mutant S458A
# T7 chain: T4 chain with S18A
# [8] = target: T8, GST-RelB Δ4 point mutant S468A
# T8 chain: T4 chain with S28A
# [9] = target: T9, GST-RelB Δ4 point mutant S472A
# T9 chain: T4 chain with S32A
protein,measurement,setting,value
B1,"IKKγ kinase assays (phosphorylation of the GST-RelB substrate, 32P autoradiography)",[1],Only mutant Δ4 was efficiently phosphorylated by IKKγ
same,"IKKγ kinase assays (phosphorylation of the GST-RelB substrate, 32P autoradiography)",[2],Only mutant Δ4 was efficiently phosphorylated by IKKγ
same,"IKKγ kinase assays (phosphorylation of the GST-RelB substrate, 32P autoradiography)",[3],Only mutant Δ4 was efficiently phosphorylated by IKKγ
same,"IKKγ kinase assays (phosphorylation of the GST-RelB substrate, 32P autoradiography)",[4],Only mutant Δ4 was efficiently phosphorylated by IKKγ
same,"IKKγ kinase assays (phosphorylation of the GST-RelB substrate, 32P autoradiography)",[5],Only mutant Δ4 was efficiently phosphorylated by IKKγ
same,in vitro kinase assays (phosphorylation of GST-RelB Δ4 point mutants),[6],only a point mutation at serine 472 abolished phosphorylation of the Δ4 RelB deletion mutant
same,in vitro kinase assays (phosphorylation of GST-RelB Δ4 point mutants),[7],only a point mutation at serine 472 abolished phosphorylation of the Δ4 RelB deletion mutant
same,in vitro kinase assays (phosphorylation of GST-RelB Δ4 point mutants),[8],only a point mutation at serine 472 abolished phosphorylation of the Δ4 RelB deletion mutant
same,in vitro kinase assays (phosphorylation of GST-RelB Δ4 point mutants),[9],only a point mutation at serine 472 abolished phosphorylation of the Δ4 RelB deletion mutant
